{
  "source": "paper PMC7542444",
  "data": [
    {"target": "LEDGF/ΔIBD-B56γ chimera (LEDGF residues 1-324 and B56γ residues 11-380), wild type, O75475;Q13362", "assay": "pull-down", "conditions": "parent: est. 100; read off a plot", "values": [
      {"substance": "His6-STLV-1 IN (6xHis-tagged STLV-1 MarB43 IN), wild type I216A", "percent of parent (% of wild type)": 1},
      {"substance": "His6-STLV-1 IN (6xHis-tagged STLV-1 MarB43 IN), wild type P215A; P217A", "percent of parent (% of wild type)": 15},
      {"substance": "His6-STLV-1 IN (6xHis-tagged STLV-1 MarB43 IN), wild type H209A", "percent of parent (% of wild type)": 23},
      {"substance": "His6-STLV-1 IN (6xHis-tagged STLV-1 MarB43 IN), wild type H209A; P211A", "percent of parent (% of wild type)": 21},
      {"substance": "His6-STLV-1 IN (6xHis-tagged STLV-1 MarB43 IN), wild type E218A", "percent of parent (% of wild type)": 5},
      {"substance": "His6-STLV-1 IN (6xHis-tagged STLV-1 MarB43 IN), wild type P214A", "percent of parent (% of wild type)": 57}
    ]},
    {"target": "His6-STLV-1 IN (6xHis-tagged STLV-1 MarB43 IN), wild type", "assay": "pull-down", "conditions": "parent: est. 100; read off a plot", "values": [
      {"substance": "LEDGF/ΔIBD-B56γ chimera (LEDGF residues 1-324 and B56γ residues 11-380), wild type (from UniProt O75475;Q13362) E78A; T81A; H82A", "percent of parent (% of wild type)": 150},
      {"substance": "LEDGF/ΔIBD-B56γ chimera (LEDGF residues 1-324 and B56γ residues 11-380), wild type (from UniProt O75475;Q13362) R84A", "percent of parent (% of wild type)": 140},
      {"substance": "LEDGF/ΔIBD-B56γ chimera (LEDGF residues 1-324 and B56γ residues 11-380), wild type (from UniProt O75475;Q13362) R143A", "percent of parent (% of wild type)": 46}
    ]}
  ]
}
